According to IntAct's records for PubMed 21331046:

B1: Oxysterols receptor LXR-beta (Homo sapiens), P55055 (parent)
chain: MSSPTTSSLDTPLPGNGPPQPGAPSSSPTVKEEGPEPWPGGPDPDVPGTDEASSACSTDWVIPDPEEEPERKRKKGPAPKMLGHELCRVCGDKASGFHYNVLSCEGCKGFFRRSVVRGGARRYACRGGGTCQMDAFMRRKCQQCRLRKCKEAGMREQCVLSEEQIRKKKIRKQQQESQSQSQSPVGPQGSSSSASGPGASPGGSEAGSQGSGEGEGVQLTAAQELMIQQLVAAQLQCNKRSFSDQPKVTPWPLGADPQSRDARQQRFAHFTELAIISVQEIVDFAKQVPGFLQLGREDQIALLKASTIEIMLLETARRYNHETECITFLKDFTYSKDDFHRAGLQVEFINPIFEFSRAMRRLGLDDAEYALLIAINIFSADRPNVQEPGRVEALQQPYVEALLSYTRIKRPQDQLRFPRMLMKLVSLRTLSSVHSEQVFALRLQDKKLPPLLSEIWDVHE
B2: Oxysterols receptor LXR-beta (Homo sapiens), P55055 (parent)
chain: B1 chain
partner: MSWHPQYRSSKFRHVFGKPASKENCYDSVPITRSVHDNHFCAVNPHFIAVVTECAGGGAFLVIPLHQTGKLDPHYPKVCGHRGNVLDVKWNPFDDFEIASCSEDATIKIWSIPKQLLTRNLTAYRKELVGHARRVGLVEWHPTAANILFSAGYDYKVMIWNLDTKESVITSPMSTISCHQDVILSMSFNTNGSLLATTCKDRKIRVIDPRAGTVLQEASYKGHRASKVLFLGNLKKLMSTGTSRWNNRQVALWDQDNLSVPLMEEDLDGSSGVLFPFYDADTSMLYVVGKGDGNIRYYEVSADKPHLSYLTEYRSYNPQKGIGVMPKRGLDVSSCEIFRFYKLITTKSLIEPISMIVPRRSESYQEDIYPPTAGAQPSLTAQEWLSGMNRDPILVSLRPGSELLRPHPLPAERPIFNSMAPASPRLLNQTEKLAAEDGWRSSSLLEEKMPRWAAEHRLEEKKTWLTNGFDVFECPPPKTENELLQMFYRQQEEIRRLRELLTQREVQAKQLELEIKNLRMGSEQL
B3: Oxysterols receptor LXR-beta (Homo sapiens), P55055 (parent)
chain: B1 chain
partner: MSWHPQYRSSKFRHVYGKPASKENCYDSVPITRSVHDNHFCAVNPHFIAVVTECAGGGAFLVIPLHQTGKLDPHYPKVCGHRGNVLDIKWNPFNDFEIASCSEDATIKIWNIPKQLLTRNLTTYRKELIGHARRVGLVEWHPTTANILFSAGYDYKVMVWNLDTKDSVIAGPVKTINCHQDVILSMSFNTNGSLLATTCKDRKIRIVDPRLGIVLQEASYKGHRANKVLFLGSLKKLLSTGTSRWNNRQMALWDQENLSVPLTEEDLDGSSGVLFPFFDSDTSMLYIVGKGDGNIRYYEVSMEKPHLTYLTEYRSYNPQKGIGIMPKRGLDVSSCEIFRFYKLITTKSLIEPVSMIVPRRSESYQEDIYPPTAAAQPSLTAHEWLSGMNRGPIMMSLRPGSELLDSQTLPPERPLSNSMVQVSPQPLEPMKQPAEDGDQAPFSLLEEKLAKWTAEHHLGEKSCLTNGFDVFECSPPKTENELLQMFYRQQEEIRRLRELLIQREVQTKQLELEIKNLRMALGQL

Variants of: B1
Details: with senp3_mouse Senp3, Q9EP97
Sequence of senp3_mouse Senp3, Q9EP97 (Q9EP97 whole entry): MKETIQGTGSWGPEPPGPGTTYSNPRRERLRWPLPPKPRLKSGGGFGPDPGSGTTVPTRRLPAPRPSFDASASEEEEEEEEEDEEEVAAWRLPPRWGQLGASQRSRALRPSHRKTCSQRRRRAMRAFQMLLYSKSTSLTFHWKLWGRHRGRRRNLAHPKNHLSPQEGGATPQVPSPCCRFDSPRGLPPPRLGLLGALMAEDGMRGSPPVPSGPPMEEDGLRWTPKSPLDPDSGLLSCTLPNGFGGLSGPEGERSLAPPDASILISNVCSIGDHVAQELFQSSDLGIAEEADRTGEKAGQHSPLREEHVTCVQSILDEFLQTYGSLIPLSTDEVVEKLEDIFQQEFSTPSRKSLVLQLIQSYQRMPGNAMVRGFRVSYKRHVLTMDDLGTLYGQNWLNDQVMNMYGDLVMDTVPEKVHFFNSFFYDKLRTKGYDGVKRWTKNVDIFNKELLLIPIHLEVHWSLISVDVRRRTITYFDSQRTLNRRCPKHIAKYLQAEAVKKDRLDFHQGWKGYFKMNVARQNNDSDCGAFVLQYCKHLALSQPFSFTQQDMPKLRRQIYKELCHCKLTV

Variant	effect of a mutation on the interaction
S426A	disrupting interaction

Variants of: B2
Details: with cor2a_human CORO2A

Variant	effect of a mutation on the interaction
K409R;K447R	disrupting interaction

Variants of: B3
Details: with cor2a_mouse Coro2a

Variant	effect of a mutation on the interaction
S426D	disrupting interaction
